biological target: Recombinant Human TNF-α/TNFSF1A (human, UniProt P01375 77-233); assay: cell-based or functional assay
Sequence (P01375 77-233 limits assumed): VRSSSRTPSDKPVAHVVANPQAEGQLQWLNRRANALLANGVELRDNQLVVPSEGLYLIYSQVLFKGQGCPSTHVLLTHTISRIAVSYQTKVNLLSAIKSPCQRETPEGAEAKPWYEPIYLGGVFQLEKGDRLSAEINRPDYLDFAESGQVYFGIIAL

C-Terminal VD huTNFα Neutralization Assay IC50	N-Terminal VD huTNFα Neutralization Assay IC50	Binder
0.23 nM	–	DVD2788 (bispecific antibody, IgG1) VH: EVTLRESGPGLVKPTQTLTLTCTLYGFSLSTSDMGVDWIRQPPGKGLEWLAHIWWDDVKRYNPALKSRLTISKDTSKNQVVLKLTSVDPVDTATYYCARTVSSGYIYYAMDYWGQGTLVTVSSGGGGSGGGGSEVQLVQSGAEVKKPGASVKVSCKASGYTFANYGIIWVRQAPGQGLEWMGWINTYTGKPTYAQKFQGRVTMTTDTSTSTAYMELSSLRSEDTAVYYCARKLFTTMDVTDNAMDYWGQGTTVTVSS VL: DIQMTQSPSSLSASVGDRVTISCRASQDIRNYLNWYQQKPGKAPKLLIFYTSKLHSGVPSRFSGSGSGTDYTLTISSLQPEDIATYYCQQGLTPPLTFGGGTKVEIKRGGSGGGGSGDIQMTQSPSSLSASVGDRVTITCRASQDISQYLNWYQQKPGKAPKLLIYYTSRLQSGVPSRFSGSGSGTDFTLTISSLQPEDFATYFCQQGNTWPPTFGQGTKLEIKR
–	8 pM	DVD2783 (bispecific antibody, IgG1) VH: EVQLVQSGAEVKKPGASVKVSCKASGYTFANYGIIWVRQAPGQGLEWMGWINTYTGKPTYAQKFQGRVTMTTDTSTSTAYMELSSLRSEDTAVYYCARKLFTTMDVTDNAMDYWGQGTTVTVSSGGGGSGGGGSEVTLRESGPGLVKPTQTLTLTCTLYGFSLSTSDMGVDWIRQPPGKGLEWLAHIWWDDVKRYNPALKSRLTISKDTSKNQVVLKLTSVDPVDTATYYCARTVSSGYIYYAMDYWGQGTLVTVSS VL: DIQMTQSPSSLSASVGDRVTITCRASQDISQYLNWYQQKPGKAPKLLIYYTSRLQSGVPSRFSGSGSGTDFTLTISSLQPEDFATYFCQQGNTWPPTFGQGTKLEIKRGGSGGGGSGDIQMTQSPSSLSASVGDRVTISCRASQDIRNYLNWYQQKPGKAPKLLIFYTSKLHSGVPSRFSGSGSGTDYTLTISSLQPEDIATYYCQQGLTPPLTFGGGTKVEIKR
–	6 pM	DVD2784 (bispecific antibody, IgG1) VH: EVQLVQSGAEVKKPGASVKVSCKASGYTFANYGIIWVRQAPGQGLEWMGWINTYTGKPTYAQKFQGRVTMTTDTSTSTAYMELSSLRSEDTAVYYCARKLFTTMDVTDNAMDYWGQGTTVTVSSASTKGPEVTLRESGPGLVKPTQTLTLTCTLYGFSLSTSDMGVDWIRQPPGKGLEWLAHIWWDDVKRYNPALKSRLTISKDTSKNQVVLKLTSVDPVDTATYYCARTVSSGYIYYAMDYWGQGTLVTVSS VL: DIQMTQSPSSLSASVGDRVTITCRASQDISQYLNWYQQKPGKAPKLLIYYTSRLQSGVPSRFSGSGSGTDFTLTISSLQPEDFATYFCQQGNTWPPTFGQGTKLEIKRTVAAPDIQMTQSPSSLSASVGDRVTISCRASQDIRNYLNWYQQKPGKAPKLLIFYTSKLHSGVPSRFSGSGSGTDYTLTISSLQPEDIATYYCQQGLTPPLTFGGGTKVEIKR
–	8 pM	DVD2786 (bispecific antibody, IgG1) VH: EVQLVQSGAEVKKPGASVKVSCKASGYTFANYGIIWVRQAPGQGLEWMGWINTYTGKPTYAQKFQGRVTMTTDTSTSTAYMELSSLRSEDTAVYYCARKLFTTMDVTDNAMDYWGQGTTVTVSSASTKGPEVTLRESGPGLVKPTQTLTLTCTLYGFSLSTSDMGVDWIRQPPGKGLEWLAHIWWDDVKRYNPALKSRLTISKDTSKNQVVLKLTSVDPVDTATYYCARTVSSGYIYYAMDYWGQGTLVTVSS VL: DIQMTQSPSSLSASVGDRVTITCRASQDISQYLNWYQQKPGKAPKLLIYYTSRLQSGVPSRFSGSGSGTDFTLTISSLQPEDFATYFCQQGNTWPPTFGQGTKLEIKRTVAAPSVFIFPPDIQMTQSPSSLSASVGDRVTISCRASQDIRNYLNWYQQKPGKAPKLLIFYTSKLHSGVPSRFSGSGSGTDYTLTISSLQPEDIATYYCQQGLTPPLTFGGGTKVEIKR
–	5 pM	DVD2787 (bispecific antibody, IgG1) VH: EVQLVQSGAEVKKPGASVKVSCKASGYTFANYGIIWVRQAPGQGLEWMGWINTYTGKPTYAQKFQGRVTMTTDTSTSTAYMELSSLRSEDTAVYYCARKLFTTMDVTDNAMDYWGQGTTVTVSSASTKGPSVFPLAPEVTLRESGPGLVKPTQTLTLTCTLYGFSLSTSDMGVDWIRQPPGKGLEWLAHIWWDDVKRYNPALKSRLTISKDTSKNQVVLKLTSVDPVDTATYYCARTVSSGYIYYAMDYWGQGTLVTVSS VL: DIQMTQSPSSLSASVGDRVTITCRASQDISQYLNWYQQKPGKAPKLLIYYTSRLQSGVPSRFSGSGSGTDFTLTISSLQPEDFATYFCQQGNTWPPTFGQGTKLEIKRTVAAPDIQMTQSPSSLSASVGDRVTISCRASQDIRNYLNWYQQKPGKAPKLLIFYTSKLHSGVPSRFSGSGSGTDYTLTISSLQPEDIATYYCQQGLTPPLTFGGGTKVEIKR

Continued, binder first:

Binder	C-Terminal VD huTNFα Neutralization Assay IC50	N-Terminal VD huTNFα Neutralization Assay IC50
DVD2689 (bispecific antibody, IgG1) VH: EVTLRESGPGLVKPTQTLTLTCTLYGFSLSTSDMGVDWIRQPPGKGLEWLAHIWWDDVKRYNPALKSRLTISKDTSKNQVVLKLTSVDPVDTATYYCARTVSSGYIYYAMDYWGQGTLVTVSSASTKGPEVQLVESGGGLVQPGGSLRLSCAASGFTFSNYGVTWVRQAPGKGLEWVSMIWADGSTHYASSVKGRFTISRDNSKNTLYLQMNSLRAEDTAVYYCAREWQHGPVAYWGQGTLVTVSS VL: DIQMTQSPSSLSASVGDRVTISCRASQDIRNYLNWYQQKPGKAPKLLIFYTSKLHSGVPSRFSGSGSGTDYTLTISSLQPEDIATYYCQQGLTPPLTFGGGTKVEIKRTVAAPDIQMTQSPSSLSASVGDRVTITCRASQLVSSAVAWYQQKPGKAPKLLIYWASARHTGVPSRFSGSGSGTDFTLTISSLQPEDFATYYCQQHYKTPFTFGQGTKLEIKR	0.076 nM	–
DVD2742 (bispecific antibody, IgG1) VH: EVTLRESGPGLVKPTQTLTLTCTLYGFSLSTSDMGVDWIRQPPGKGLEWLAHIWWDDVKRYNPALKSRLTISKDTSKNQVVLKLTSVDPVDTATYYCARTVSSGYIYYAMDYWGQGTLVTVSSASTKGPSVFPLAPEVQLVESGGGLVQPGGSLRLSCAASGFTFSNYGVEWVRQAPGKGLEWVSGIWADGSTHYADTVKSRFTISRDNSKNTLYLQMNSLRAEDTAVYYCAREWQHGPVAYWGQGTLVTVSS VL: DIQMTQSPSSLSASVGDRVTISCRASQDIRNYLNWYQQKPGKAPKLLIFYTSKLHSGVPSRFSGSGSGTDYTLTISSLQPEDIATYYCQQGLTPPLTFGGGTKVEIKRTVAAPDIQMTQSPSSLSASVGDRVTITCKASQLVSSAVAWYQQKPGKAPKLLIYWASTLHTGVPSRFSGSGSGTDFTLTISSLQPEDFATYYCQQHYRTPFTFGQGTKLEIKR	0.129 nM	–
DVD2741 (bispecific antibody, IgG1) VH: EVTLRESGPGLVKPTQTLTLTCTLYGFSLSTSDMGVDWIRQPPGKGLEWLAHIWWDDVKRYNPALKSRLTISKDTSKNQVVLKLTSVDPVDTATYYCARTVSSGYIYYAMDYWGQGTLVTVSSASTKGPEVQLVESGGGLVQPGGSLRLSCAASGFTFSNYGVEWVRQAPGKGLEWVSGIWADGSTHYADTVKSRFTISRDNSKNTLYLQMNSLRAEDTAVYYCAREWQHGPVAYWGQGTLVTVSS VL: DIQMTQSPSSLSASVGDRVTISCRASQDIRNYLNWYQQKPGKAPKLLIFYTSKLHSGVPSRFSGSGSGTDYTLTISSLQPEDIATYYCQQGLTPPLTFGGGTKVEIKRTVAAPSVFIFPPDIQMTQSPSSLSASVGDRVTITCKASQLVSSAVAWYQQKPGKAPKLLIYWASTLHTGVPSRFSGSGSGTDFTLTISSLQPEDFATYYCQQHYRTPFTFGQGTKLEIKR	0.202 nM	–
DVD2739 (bispecific antibody, IgG1) VH: EVTLRESGPGLVKPTQTLTLTCTLYGFSLSTSDMGVDWIRQPPGKGLEWLAHIWWDDVKRYNPALKSRLTISKDTSKNQVVLKLTSVDPVDTATYYCARTVSSGYIYYAMDYWGQGTLVTVSSASTKGPEVQLVESGGGLVQPGGSLRLSCAASGFTFSNYGVEWVRQAPGKGLEWVSGIWADGSTHYADTVKSRFTISRDNSKNTLYLQMNSLRAEDTAVYYCAREWQHGPVAYWGQGTLVTVSS VL: DIQMTQSPSSLSASVGDRVTISCRASQDIRNYLNWYQQKPGKAPKLLIFYTSKLHSGVPSRFSGSGSGTDYTLTISSLQPEDIATYYCQQGLTPPLTFGGGTKVEIKRTVAAPDIQMTQSPSSLSASVGDRVTITCKASQLVSSAVAWYQQKPGKAPKLLIYWASTLHTGVPSRFSGSGSGTDFTLTISSLQPEDFATYYCQQHYRTPFTFGQGTKLEIKR	0.517 nM	–
DVD2692 (bispecific antibody, IgG1) VH: EVTLRESGPGLVKPTQTLTLTCTLYGFSLSTSDMGVDWIRQPPGKGLEWLAHIWWDDVKRYNPALKSRLTISKDTSKNQVVLKLTSVDPVDTATYYCARTVSSGYIYYAMDYWGQGTLVTVSSASTKGPSVFPLAPEVQLVESGGGLVQPGGSLRLSCAASGFTFSNYGVTWVRQAPGKGLEWVSMIWADGSTHYASSVKGRFTISRDNSKNTLYLQMNSLRAEDTAVYYCAREWQHGPVAYWGQGTLVTVSS VL: DIQMTQSPSSLSASVGDRVTISCRASQDIRNYLNWYQQKPGKAPKLLIFYTSKLHSGVPSRFSGSGSGTDYTLTISSLQPEDIATYYCQQGLTPPLTFGGGTKVEIKRTVAAPDIQMTQSPSSLSASVGDRVTITCRASQLVSSAVAWYQQKPGKAPKLLIYWASARHTGVPSRFSGSGSGTDFTLTISSLQPEDFATYYCQQHYKTPFTFGQGTKLEIKR	0.04 nM	–
DVD2688 (bispecific antibody, IgG1) VH: EVTLRESGPGLVKPTQTLTLTCTLYGFSLSTSDMGVDWIRQPPGKGLEWLAHIWWDDVKRYNPALKSRLTISKDTSKNQVVLKLTSVDPVDTATYYCARTVSSGYIYYAMDYWGQGTLVTVSSGGGGSGGGGSEVQLVESGGGLVQPGGSLRLSCAASGFTFSNYGVTWVRQAPGKGLEWVSMIWADGSTHYASSVKGRFTISRDNSKNTLYLQMNSLRAEDTAVYYCAREWQHGPVAYWGQGTLVTVSS VL: DIQMTQSPSSLSASVGDRVTISCRASQDIRNYLNWYQQKPGKAPKLLIFYTSKLHSGVPSRFSGSGSGTDYTLTISSLQPEDIATYYCQQGLTPPLTFGGGTKVEIKRGGSGGGGSGDIQMTQSPSSLSASVGDRVTITCRASQLVSSAVAWYQQKPGKAPKLLIYWASARHTGVPSRFSGSGSGTDFTLTISSLQPEDFATYYCQQHYKTPFTFGQGTKLEIKR	0.093 nM	–
DVD2738 (bispecific antibody, IgG1) VH: EVTLRESGPGLVKPTQTLTLTCTLYGFSLSTSDMGVDWIRQPPGKGLEWLAHIWWDDVKRYNPALKSRLTISKDTSKNQVVLKLTSVDPVDTATYYCARTVSSGYIYYAMDYWGQGTLVTVSSGGGGSGGGGSEVQLVESGGGLVQPGGSLRLSCAASGFTFSNYGVEWVRQAPGKGLEWVSGIWADGSTHYADTVKSRFTISRDNSKNTLYLQMNSLRAEDTAVYYCAREWQHGPVAYWGQGTLVTVSS VL: DIQMTQSPSSLSASVGDRVTISCRASQDIRNYLNWYQQKPGKAPKLLIFYTSKLHSGVPSRFSGSGSGTDYTLTISSLQPEDIATYYCQQGLTPPLTFGGGTKVEIKRGGSGGGGSGDIQMTQSPSSLSASVGDRVTITCKASQLVSSAVAWYQQKPGKAPKLLIYWASTLHTGVPSRFSGSGSGTDFTLTISSLQPEDFATYYCQQHYRTPFTFGQGTKLEIKR	0.452 nM	–
